The target in one test is SARS-CoV-1 RBD (SARS-CoV (SARS-CoV-1), isolate not …, UniProt P59594).
Test [1] deals with T1, SARS-CoV-2 RBD (residues 319-541), ancestral strain (SARS-CoV-2, UniProt P0DTC2).
The next test concerns the target bat RaTG12-CoV RBD (Bat coronavirus RaTG13 (printed as …, UniProt A0ABF7PLN6)).
Test [2] addresses T1, SARS-CoV-2 RBD (residues 319-541), …. Put plainly: BLI. Conditions: both partners purified.

B1: GAR20 (antibody, V domains shown)
VH: QVQLQQWGAGLLKPSETLSLTCAVYGGSFSDFYWSWIRQPPGKGLEWIGQIDHSGSPNYNPSLKSRVTMSVDTSKNHFSLRLTSMTAADTAVYYCAKGPRYGSGSFDPLGQGTLVTVSS
VL: SYELTQPPSVSVAPGQTARITCGGDNIGSKTVHWYQQKPGQAPVLVVYDDGDRPSGIPERFSGSNPGNTATLTISRVEAGDEADYYCQVWDSSSDSVVFGGGTELTVL
As for B1, the binding result (with SARS-CoV-1 RBD; in test [1]; with bat RaTG12-CoV RBD) was “binds” each time.

B2: GAR04 (antibody, V domains shown)
VH: QVQLVQSGAEVKKSGASVKVSCKASGYTFTGYHMHWVRQAPGQGLEWMGWINPKSDGTNSAQKFQGRVTMTRDTSISTAYMELSRLRSDDTAVYYCARLAVREYYDNSGFYRKTTDAFDLWGQGTMVTVSS
VL: DIVMTQSPDSLAVSLGERATINCKSSQSVLYNSNNKNYLAWYQQKPGQPPKLLIYWASTRESGVPDRFSGSGSGTDFTLTINSLQAEDVAVYYCQQYSITTPPITFGQGTRLEIK
Take B2: the binding result in test [1] is reported as “binds”.

B3: GAR17 (antibody, V domains shown)
VH: EVQLVESGGGLGQPGGSLRLSCAASGFNFSNYAMSWVRQAPGKGLEWISTVGGSGDSTYYADSVKGRFTISIDNSKNRLYLQMNSLRSEDTAVYYCAKELAVMPPYFYYYAMDVWGQGTTVTVSS
VL: QPVLTQPPSASGTPGQRVTISCSGTTSNVGSTYVYWYQQLPGTAPKLLIYRYNQRPSGVPDRFSGSKSGTSASLVISGLRSDDEAVYYCATWDDSRHVVFGGGTKLTVL
As for B3, in test [1], the binding result is given as “binds”.

B4: GAR18 (antibody, V domains shown)
VH: QVQLQESGPGLVKPSETLSLTCTVSGGSISDYYWSWIRQPPGKGLEWIGYIHGSGGTNYNPSLKSRVTILVDTSKNELSLKLSSVTTADTAVYYCARDDMISGLGYYGMDVWGQGTTVTVSS
VL: EIVMTQSPATLSLSPGERVTLSCRASQSVSSYLAWYQQKPGQAPRLLIYDASNRATGIPARFSGSGSGTDFTLTISSLEPEDFAVYYCQQRSNWPSTFGPGTKVDIK
As for B4, the binding result in test [1] is “binds”.

B5: GAR05, human IgG1 monoclonal antibody (antibody, V domains shown)
VH: EVQLVQSGGDLVQPGGSLRLSCAVSGFTVSRNYMTWVRQAPGRGLEWVSLIYPGGSAFYADSVKGRFTISRDNSKNTLYLQMNSLRVEDTAVYYCARDPVSTGHYHDSDYWGQGTLVTVSS
VL: DIQMTQSPSALSASVGDRVTITCQASQDINKFLNWYQQKPGKAPKLLIYDASNLETGVPSRFSGGGSGTDFTFTISSLQPEDIATYYCHQYDNLPRTFGQGTKVELK
notes: source: ExpiCHO, purified (Protein G resin)
In test [2], B5 registered an equilibrium dissociation constant (Kd) of 0.54 nM.

B6: GAR09 (antibody, V domains shown)
VH: EVQLVESGGGLVQPGGSLRLSCAASGFTVSYNYMSWVRQAPGKGLEWVSLIYSGGSTYYADSVKGRFTISRDSSKNTLYLQMNSLRVEDTAVYYCAREVPSRSGWSGGQGTLVTVSS
VL: DIVMTQSPSSLSASVGDRVTITCQASQDMNKYLNWYQQKPGKAPKLLIYDASNLETGVPSRFSGSGSGTNFTFTISSLQPEDIATYYCQQYDNLPPVFGPGTKVEIK
For the molecule B6, the binding result in test [1] was “binds”.

B7: GAR06 (antibody, V domains shown)
VH: QVTLRESGPALVKPTQTLTLTCTFSGFSVSSAGMCVSWIRQPPGKALEWLARIDWDDDKYYSTSLRTRLTISTDTSKNQVVLTMTNMDPVDTATYYCARTTMTTSYYFDSWGQGTLVTVSS
VL: QSALTQPRSVSGSPGQSVTISCTGTSSDVGGYDYVSWYQHHPGKAPKVVLYDVTKRPSGVPDRFSGSKSGNTASLTISGLQAEDEADYYCCSYAGSYAGVFGTGTKVTVL
In the case of B7, in test [1], the binding result is recorded as “binds”.

B8: GAR01 (antibody, V domains shown)
VH: QVQLVQSEGGVVQPGRSLRLSCTASGFTFSSYGMHWVRQAPGKGLEWVALISYDGSDKYYADSVKGRFTISRDNSKNTLYLQMNSLRPEDTAVFYCAKGGWYGSSSGFDYWGQGTLVTVSS
VL: DIQMTQSPSSLSASVGDRVTITCQASQDISNYLNWYQQKPGKAPKLLIYDASNLETGVPSRFSGSGSGTDFIFTISSLQPEDIATYYCQQYHDVPRTFGQGTKVEIK
In the case of B8, the binding result (with SARS-CoV-1 RBD; in test [1]; with bat RaTG12-CoV RBD) was “binds” throughout.

B9: GAR15 (antibody, V domains shown)
VH: EVQLVESGGGLVQPGGSLRLSCAASGLTVSSNYMSWVRQAPGKGLEWVSVIYSGGSTFYADSVKGRFTISRHNSKNTLYLQMNSLRGDDTAVYYCARDLIYYGMDVWGQGTTVTVSS
VL: DIVMTQSPSSLSASVGDRVTITCRASQGISSSLAWYQQNPGKPPKLLIYAASTLQSGVPSRFSGSGSGTDFTLTISSLQPEDFATYYCQQLNSDLYTFGQGTKVEIK
With B9, the binding result in test [1] is recorded as “binds”.

B10: GAR16 (antibody, V domains shown)
VH: EVQLVESGGGVVQPGGSLRLSCAASGFTFSNYDMHWVRQATGKGLEWVSAIGTAGDTYYPDSVKGRFTISRDNAKNSLYLQMNSLRAEDTAVYYCTRVVHSSDWTSWSAGIHNWFDSWGQGTLVTVSS
VL: DIVMTQSPSSLSASVGDRVSITCRTSQSIRTYLNWYQQKPGKAPKLLIYASSSLQSGVPSRFSGSGSGTDFTLSISSLQPEDFATYYCQQSYSMPPWTFGQGTKLEIK
Consider B10, for which the binding result (in the test with SARS-CoV-1 RBD; in test [1]; with bat RaTG12-CoV RBD) was “binds” in each case.

B11: GAR14 (antibody, V domains shown)
VH: EVQLVESGGGLVQPGGSLRLSCAASGFTFSRYDMHWVRQTTGKGLEWVSAIGTAGDTYYPDSVKGRFTISRENAKNSLHLQMNSLRVGDTAVYFCARAVDCSDISCYSNWYFDLWGRGTLVTVSS
VL: DIQLTQSPSSLSASVGDRVTITCRASQTISSFLNWYQQKPGKAPHLLIYAASSLQSGVPSRFSGSGSGTDFTLTITNLQPEDFATYYCQQSYSTPPITFGQGTRLEIK
For the molecule B11, the binding result (with SARS-CoV-1 RBD; in test [1]; in the test with bat RaTG12-CoV RBD) was “binds” in each case.

B12: GAR11 (antibody, V domains shown)
VH: EVQLVQSGTEVKKPGSSVKVSCEASGGTFSKYAITWVRQAPGQGLEWMGGIIPIFGTANYAQKFQDRVKITADEITSIAYMELNSLSSEDTAVYYCARDNRGRGFGEILSYYYGMDVWGQGTTVTVSS
VL: SALTQPASVSGSPGQSITISCTGTSSDVGGYNYVSWYQQHPGKAPKLMIYDVATRPSGVSDRFSGSKSGNTASLTISGLQAEDEADYYCSSYTSSNTLAFGGGTKLTVL
As for B12, the binding result (with SARS-CoV-1 RBD; in test [1]; with bat RaTG12-CoV RBD) was “binds” each time.

B13: GAR13 (antibody, V domains shown)
VH: EVQLVESGGGLVQPGGSLRLSCAASGFTFSNYDMHWVRQVTGKGLEWVSLIGTSGDTYYPGSVKGRFTISRDNAKNSLYLQMNSLRADDTAVYYCVRAAFDDHNIYSWFDSWGQGTLVTVSS
VL: DIQMTQSPSSLSASVGDRVTITCRASQSIGRYLNWYQQKPGKAPKLLIYTASSLQSGVPSRFSGSGSGTEFTLTISSLQPEDFATYYCQQSYNIPPLTFGGGTKVEIK
For the molecule B13, the binding result (with SARS-CoV-1 RBD; in test [1]; with bat RaTG12-CoV RBD) was “binds” in each case.

B14: GAR07 (antibody, V domains shown)
VH: EVQLVQSGGGLVQPGGSLRLSCAASEFIVSSNYMSWVRQAPGKGLEWVSVIYSGGSTFYADSVKGRFTISRDNSKNTLHLQMNSLRVEDTAVYYCARDRGDRFDYWGQGTLVTVSS
VL: not shown
For B14, the binding result in test [1] is listed as “binds”.

These data come from paper PMC9907207 (Nature Communications, 2023).
